In US11653679B2, “High-purity steviol glycosides” (PureCircle Sdn Bhd, priority 2014, dated 2023):

Test: Directed evolution of UGT76G1, Rebaudioside D to Rebaudioside M, round 1 (Example 26)
Format: biochemical
Conditions: 100 μL fresh lysate, 0.5 mM Rebaudioside D, 30° C., pH 7.2
Method: Lysis was performed by addition of Bugbuster® Master mix (Novagen®) to the thawed cells and the lysate was recovered by centrifugation. Activity tests were performed with 100 μL of fresh lysate that was added to a solution of Rebaudioside D (final concentration 0.5 mM), MgCl2 (final concentration 3 mM) and UDP-Glucose (final concentration 2.5 mM) in 50 mM phosphate buffer pH 7.2.
The reaction was allowed to run at 30° C. and samples were taken after 2, 4, 7 and 24 h. to determine conversion and initial rate by HPLC (CAD detection) using the analytical method that was described above for the transformation of Rebaudioside D to Rebaudioside M. The results are depicted in the following table.

B1: UGT76G1var47: UGT76G1 variant, mutations E229A_T284I_S389E (protein, UniProt Q6VAB4 1-458, looked up, variant E229A T284I S389E)
UDP-glycosyltransferase 76G1: MENKTETTVRRRRRIILFPVPFQGHINPILQLANVLYSKGFSITIFHTNFNKPKTSNYPHFTFRFILDNDPQDERISNLPTHGPLAGMRIPIINEHGADELRRELELLMLASEEDEEVSCLITDALWYFAQSVADSLNLRRLVLMTSSLFNFHAHVSLPQFDELGYLDPDDKTRLEEQASGFPMLKVKDIKSAYSNWQILKEILGKMIKQTKASSGVIWNSFKELEESALETVIREIPAPSFLIPLPKHLTASSSSLLDHDRTVFQWLDQQPPSSVLYVSFGSISEVDEKDFLEIARGLVDSKQSFLWVVRPGFVKGSTWVEPLPDGFLGERGRIVKWVPQQEVLAHGAIGAFWTHSGWNSTLESVCEGVPMIFSDFGLDQPLNARYMEDVLKVGVYLENGWERGEIANAIRRVMVDEEGEYIRQNARVLKQKADVSLMKGGSSYESLESLVSYISSL
  conversion Reb D to Reb M after 24 h: 4.8%
  initial rate: 2.7E+06 Reb M area/min

B2: UGT76G1var49: UGT76G1 variant, mutations F41L_Q266E_T284I_Y397Q (protein, UniProt Q6VAB4 1-458, looked up, variant F41L Q266E T284I Y397Q)
UDP-glycosyltransferase 76G1: MENKTETTVRRRRRIILFPVPFQGHINPILQLANVLYSKGLSITIFHTNFNKPKTSNYPHFTFRFILDNDPQDERISNLPTHGPLAGMRIPIINEHGADELRRELELLMLASEEDEEVSCLITDALWYFAQSVADSLNLRRLVLMTSSLFNFHAHVSLPQFDELGYLDPDDKTRLEEQASGFPMLKVKDIKSAYSNWQILKEILGKMIKQTKASSGVIWNSFKELEESELETVIREIPAPSFLIPLPKHLTASSSSLLDHDRTVFEWLDQQPPSSVLYVSFGSISEVDEKDFLEIARGLVDSKQSFLWVVRPGFVKGSTWVEPLPDGFLGERGRIVKWVPQQEVLAHGAIGAFWTHSGWNSTLESVCEGVPMIFSDFGLDQPLNARYMSDVLKVGVQLENGWERGEIANAIRRVMVDEEGEYIRQNARVLKQKADVSLMKGGSSYESLESLVSYISSL
  conversion Reb D to Reb M after 24 h: 2.6%
  initial rate: 1.1E+06 Reb M area/min

B3: UGT76G1var50: UGT76G1 variant, mutations F22Y_V310I_S375M_F377C (protein, UniProt Q6VAB4 1-458, looked up, variant F22Y V310I S375M F377C)
UDP-glycosyltransferase 76G1: MENKTETTVRRRRRIILFPVPYQGHINPILQLANVLYSKGFSITIFHTNFNKPKTSNYPHFTFRFILDNDPQDERISNLPTHGPLAGMRIPIINEHGADELRRELELLMLASEEDEEVSCLITDALWYFAQSVADSLNLRRLVLMTSSLFNFHAHVSLPQFDELGYLDPDDKTRLEEQASGFPMLKVKDIKSAYSNWQILKEILGKMIKQTKASSGVIWNSFKELEESELETVIREIPAPSFLIPLPKHLTASSSSLLDHDRTVFQWLDQQPPSSVLYVSFGSTSEVDEKDFLEIARGLVDSKQSFLWVIRPGFVKGSTWVEPLPDGFLGERGRIVKWVPQQEVLAHGAIGAFWTHSGWNSTLESVCEGVPMIFMDCGLDQPLNARYMSDVLKVGVYLENGWERGEIANAIRRVMVDEEGEYIRQNARVLKQKADVSLMKGGSSYESLESLVSYISSL
  conversion Reb D to Reb M after 24 h: 1.9%
  initial rate: 7.9E+05 Reb M area/min

B4: UGT76G1var48: UGT76G1 variant, mutations V394I_Y397E_Q432E (protein, UniProt Q6VAB4 1-458, looked up, variant V394I Y397E Q432E)
UDP-glycosyltransferase 76G1: MENKTETTVRRRRRIILFPVPFQGHINPILQLANVLYSKGFSITIFHTNFNKPKTSNYPHFTFRFILDNDPQDERISNLPTHGPLAGMRIPIINEHGADELRRELELLMLASEEDEEVSCLITDALWYFAQSVADSLNLRRLVLMTSSLFNFHAHVSLPQFDELGYLDPDDKTRLEEQASGFPMLKVKDIKSAYSNWQILKEILGKMIKQTKASSGVIWNSFKELEESELETVIREIPAPSFLIPLPKHLTASSSSLLDHDRTVFQWLDQQPPSSVLYVSFGSTSEVDEKDFLEIARGLVDSKQSFLWVVRPGFVKGSTWVEPLPDGFLGERGRIVKWVPQQEVLAHGAIGAFWTHSGWNSTLESVCEGVPMIFSDFGLDQPLNARYMSDVLKIGVELENGWERGEIANAIRRVMVDEEGEYIRQNARVLKEKADVSLMKGGSSYESLESLVSYISSL
  initial rate: 3.8E+07 Reb M area/min

B5: UGT76G1var53: UGT76G1 variant, mutations R334K_A352G_P382M_S389E (protein, UniProt Q6VAB4 1-458, looked up, variant R334K A352G P382M S389E)
UDP-glycosyltransferase 76G1: MENKTETTVRRRRRIILFPVPFQGHINPILQLANVLYSKGFSITIFHTNFNKPKTSNYPHFTFRFILDNDPQDERISNLPTHGPLAGMRIPIINEHGADELRRELELLMLASEEDEEVSCLITDALWYFAQSVADSLNLRRLVLMTSSLFNFHAHVSLPQFDELGYLDPDDKTRLEEQASGFPMLKVKDIKSAYSNWQILKEILGKMIKQTKASSGVIWNSFKELEESELETVIREIPAPSFLIPLPKHLTASSSSLLDHDRTVFQWLDQQPPSSVLYVSFGSTSEVDEKDFLEIARGLVDSKQSFLWVVRPGFVKGSTWVEPLPDGFLGERGKIVKWVPQQEVLAHGAIGGFWTHSGWNSTLESVCEGVPMIFSDFGLDQMLNARYMEDVLKVGVYLENGWERGEIANAIRRVMVDEEGEYIRQNARVLKQKADVSLMKGGSSYESLESLVSYISSL
  conversion Reb D to Reb M after 24 h: 9.3%
  initial rate: 4.1E+06 Reb M area/min

B6: UGT76G1var52: UGT76G1 variant, mutations D301N_I373L_F377C_I407V (protein, UniProt Q6VAB4 1-458, looked up, variant D301N I373L F377C I407V)
UDP-glycosyltransferase 76G1: MENKTETTVRRRRRIILFPVPFQGHINPILQLANVLYSKGFSITIFHTNFNKPKTSNYPHFTFRFILDNDPQDERISNLPTHGPLAGMRIPIINEHGADELRRELELLMLASEEDEEVSCLITDALWYFAQSVADSLNLRRLVLMTSSLFNFHAHVSLPQFDELGYLDPDDKTRLEEQASGFPMLKVKDIKSAYSNWQILKEILGKMIKQTKASSGVIWNSFKELEESELETVIREIPAPSFLIPLPKHLTASSSSLLDHDRTVFQWLDQQPPSSVLYVSFGSTSEVDEKDFLEIARGLVNSKQSFLWVVRPGFVKGSTWVEPLPDGFLGERGRIVKWVPQQEVLAHGAIGAFWTHSGWNSTLESVCEGVPMLFSDCGLDQPLNARYMSDVLKVGVYLENGWERGEVANAIRRVMVDEEGEYIRQNARVLKQKADVSLMKGGSSYESLESLVSYISSL
  initial rate: 4.6E+06 Reb M area/min

B7: UGT76G1var51: UGT76G1 variant, mutations K303G_S357C_S389E_V396F (protein, UniProt Q6VAB4 1-458, looked up, variant K303G S357C S389E V396F)
UDP-glycosyltransferase 76G1: MENKTETTVRRRRRIILFPVPFQGHINPILQLANVLYSKGFSITIFHTNFNKPKTSNYPHFTFRFILDNDPQDERISNLPTHGPLAGMRIPIINEHGADELRRELELLMLASEEDEEVSCLITDALWYFAQSVADSLNLRRLVLMTSSLFNFHAHVSLPQFDELGYLDPDDKTRLEEQASGFPMLKVKDIKSAYSNWQILKEILGKMIKQTKASSGVIWNSFKELEESELETVIREIPAPSFLIPLPKHLTASSSSLLDHDRTVFQWLDQQPPSSVLYVSFGSTSEVDEKDFLEIARGLVDSGQSFLWVVRPGFVKGSTWVEPLPDGFLGERGRIVKWVPQQEVLAHGAIGAFWTHCGWNSTLESVCEGVPMIFSDFGLDQPLNARYMEDVLKVGFYLENGWERGEIANAIRRVMVDEEGEYIRQNARVLKQKADVSLMKGGSSYESLESLVSYISSL
  initial rate: 9.5E+06 Reb M area/min

B8: UGT76G1var55: UGT76G1 variant, mutations I295M_Q342E_V366I_N409R (protein, UniProt Q6VAB4 1-458, looked up, variant I295M Q342E V366I N409R)
UDP-glycosyltransferase 76G1: MENKTETTVRRRRRIILFPVPFQGHINPILQLANVLYSKGFSITIFHTNFNKPKTSNYPHFTFRFILDNDPQDERISNLPTHGPLAGMRIPIINEHGADELRRELELLMLASEEDEEVSCLITDALWYFAQSVADSLNLRRLVLMTSSLFNFHAHVSLPQFDELGYLDPDDKTRLEEQASGFPMLKVKDIKSAYSNWQILKEILGKMIKQTKASSGVIWNSFKELEESELETVIREIPAPSFLIPLPKHLTASSSSLLDHDRTVFQWLDQQPPSSVLYVSFGSTSEVDEKDFLEMARGLVDSKQSFLWVVRPGFVKGSTWVEPLPDGFLGERGRIVKWVPQEEVLAHGAIGAFWTHSGWNSTLESICEGVPMIFSDFGLDQPLNARYMSDVLKVGVYLENGWERGEIARAIRRVMVDEEGEYIRQNARVLKQKADVSLMKGGSSYESLESLVSYISSL
  conversion Reb D to Reb M after 24 h: 1.0%
  initial rate: 2.2E+05 Reb M area/min

B9: UGT76G1var54: UGT76G1 variant, mutations E229A_T284L_R334K_Q342E (protein, UniProt Q6VAB4 1-458, looked up, variant E229A T284L R334K Q342E)
UDP-glycosyltransferase 76G1: MENKTETTVRRRRRIILFPVPFQGHINPILQLANVLYSKGFSITIFHTNFNKPKTSNYPHFTFRFILDNDPQDERISNLPTHGPLAGMRIPIINEHGADELRRELELLMLASEEDEEVSCLITDALWYFAQSVADSLNLRRLVLMTSSLFNFHAHVSLPQFDELGYLDPDDKTRLEEQASGFPMLKVKDIKSAYSNWQILKEILGKMIKQTKASSGVIWNSFKELEESALETVIREIPAPSFLIPLPKHLTASSSSLLDHDRTVFQWLDQQPPSSVLYVSFGSLSEVDEKDFLEIARGLVDSKQSFLWVVRPGFVKGSTWVEPLPDGFLGERGKIVKWVPQEEVLAHGAIGAFWTHSGWNSTLESVCEGVPMIFSDFGLDQPLNARYMSDVLKVGVYLENGWERGEIANAIRRVMVDEEGEYIRQNARVLKQKADVSLMKGGSSYESLESLVSYISSL
  conversion Reb D to Reb M after 24 h: 0.7%
  initial rate: 4.3E+05 Reb M area/min

B10: UGT76G1var56: UGT76G1 variant, mutations L246F_A352G_S357N_Q432E (protein, UniProt Q6VAB4 1-458, looked up, variant L246F A352G S357N Q432E)
UDP-glycosyltransferase 76G1: MENKTETTVRRRRRIILFPVPFQGHINPILQLANVLYSKGFSITIFHTNFNKPKTSNYPHFTFRFILDNDPQDERISNLPTHGPLAGMRIPIINEHGADELRRELELLMLASEEDEEVSCLITDALWYFAQSVADSLNLRRLVLMTSSLFNFHAHVSLPQFDELGYLDPDDKTRLEEQASGFPMLKVKDIKSAYSNWQILKEILGKMIKQTKASSGVIWNSFKELEESELETVIREIPAPSFLIPFPKHLTASSSSLLDHDRTVFQWLDQQPPSSVLYVSFGSTSEVDEKDFLEIARGLVDSKQSFLWVVRPGFVKGSTWVEPLPDGFLGERGRIVKWVPQQEVLAHGAIGGFWTHNGWNSTLESVCEGVPMIFSDFGLDQPLNARYMSDVLKVGVYLENGWERGEIANAIRRVMVDEEGEYIRQNARVLKEKADVSLMKGGSSYESLESLVSYISSL
  conversion Reb D to Reb M after 24 h: 0.4%
  initial rate: 4.1E+04 Reb M area/min
